Laboratory results taken from patent US20160083466A1 (Regeneron, published 2016).

Legend:
[1] = target: T1, rat IL-25 expressed with a C-terminal myc-myc-hexahistidine tag (rat); assay: SPR Biacore, antibody captured, 25C;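 also: purified anti-IL-25 antibodies were tested by real-time surface plasmon resonance on a Biacore 4000, with rate constants obtained from sensorgram fits to a 1:1 binding model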
T1 construct: also called Rat IL-25-MMH
T1 chain: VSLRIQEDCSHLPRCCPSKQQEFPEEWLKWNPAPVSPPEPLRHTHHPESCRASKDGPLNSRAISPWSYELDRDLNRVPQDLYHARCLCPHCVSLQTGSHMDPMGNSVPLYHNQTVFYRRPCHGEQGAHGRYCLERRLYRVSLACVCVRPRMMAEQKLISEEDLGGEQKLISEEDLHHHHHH
Method: (§1) Equilibrium dissociation constants (KD values) for IL-25 binding to purified anti-IL-25 antibodies were determined using a real-time surface plasmon resonance biosensor assay on a Biacore 4000 instrument (GE Healthcare). […] All the IL-25 reagents were expressed with a C-terminal myc-myc-hexahistidine tag (referred to herein as “IL-25-MMH”). […] Kinetic association (kₐ) and dissociation (kd) rate constants were determined by fitting the real-time sensorgrams to a 1:1 binding model using Scrubber 2.0c curve fitting software.

[2] = target: T2, human IL-25 expressed with a C-terminal myc-myc-hexahistidine tag (human); assay: competition ELISA, 2 nM hIL-25-MMH binding to coated hIL-17RB-hFc; (*) below theoretical bottom of the assay
T2 construct: also called hIL-25-MMH; Human IL-25-MMH
T2 chain: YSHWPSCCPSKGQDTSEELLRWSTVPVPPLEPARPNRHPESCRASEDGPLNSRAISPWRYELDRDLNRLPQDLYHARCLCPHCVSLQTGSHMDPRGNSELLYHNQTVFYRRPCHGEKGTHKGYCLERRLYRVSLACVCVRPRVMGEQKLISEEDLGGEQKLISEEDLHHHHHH
Method: (§2) Data analysis was performed using a sigmoidal dose-response model within Prism™ software (GraphPad). […] The absorbance values of the wells containing the highest concentration for each antibody were used to determine the percent maximum blockade.

[3] = target: T3, mouse IL-25 expressed with a C-terminal myc-myc-hexahistidine tag (mouse); assay: SPR Biacore, antibody captured, 25C
T3 construct: also called Mouse IL-25-MMH; mIL-25-MMH
T3 chain: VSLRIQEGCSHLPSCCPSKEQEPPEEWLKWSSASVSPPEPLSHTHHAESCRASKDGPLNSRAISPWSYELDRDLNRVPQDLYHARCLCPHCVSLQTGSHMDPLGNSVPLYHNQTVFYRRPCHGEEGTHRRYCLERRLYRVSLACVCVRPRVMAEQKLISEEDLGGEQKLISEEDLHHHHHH

[4] = target: T4, monkey IL-25 expressed with a C-terminal myc-myc-hexahistidine tag (M. fascicularis (cynomolgus monkey)); assay: SPR Biacore, antibody captured, 37C;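 also: biacore 4000 surface plasmon resonance biosensor measuring binding of IL-25-MMH to purified anti-IL-25 antibodies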
T4 construct: also called Monkey IL-25-MMH; MfIL-25-MMH
T4 chain: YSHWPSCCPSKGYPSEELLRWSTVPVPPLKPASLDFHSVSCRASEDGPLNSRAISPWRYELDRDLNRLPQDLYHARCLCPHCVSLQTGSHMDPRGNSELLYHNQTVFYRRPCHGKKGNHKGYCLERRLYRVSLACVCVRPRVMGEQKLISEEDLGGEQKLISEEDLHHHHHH
Method: as §1

[5] = target: T4, monkey IL-25 expressed with a …; assay: cell-based or functional assay
[6] = target: T2, human IL-25 expressed with a C-terminal …; assay: cell-based or functional assay
[7] = target: T2, human IL-25 expressed with a C-terminal …; assay: competition ELISA, 2 nM hIL-25-MMH binding to coated hIL-17RB-hFc
Method: as §2

[8] = target: T2, human IL-25 expressed with a C-terminal …; assay: BLI Octet, hIL-25-MMH captured on anti-Penta-His sensor, 25C
Method: Binding competition between anti-IL-25 monoclonal antibodies was determined using a real time, label-free bio-layer interferometry assay on an Octet QK384 biosensor (Pall ForteBio Corp.).
The biosensors were washed in HBST kinetics buffer in between every step of the experiment. The real-time binding response was monitored during the course of the experiment and the binding response at the end of every step was recorded.

[9] = target: T3, mouse IL-25 expressed with a C-terminal …; assay: SPR Biacore, antibody captured, 37C;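 as to 100 nM Mouse IL-25-MMH Bound (RU): Real-time sensorgrams of IL-25-MMH binding to purified anti-IL-25 antibodies, rate constants obtained by fitting a 1:1 binding model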
Method: as §1

[10] = target: T1, rat IL-25 expressed with a C-terminal …; assay: SPR Biacore, antibody captured, 37C;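 as to 100 nM Mouse IL-25-MMH Bound (RU): Real-time sensorgrams of IL-25-MMH binding to purified anti-IL-25 antibodies, rate constants obtained by fitting a 1:1 binding model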
Method: as §1

[11] = target: T5, monkey IL-25 expressed with a C-terminal myc-myc-hexahistidine tag (M. fascicularis (cynomolgus monkey)); assay: SPR Biacore, captured mAb, 25°C;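 also: Real-time surface plasmon resonance on a Biacore 4000, with IL-25-MMH binding to purified anti-IL-25 antibodies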
T5 construct: also called monkey IL-25-MMH; MfIL-25-MMH
T5 chain: T4 chain
Method: as §1

[12] = target: T6, mouse IL-25 expressed with a C-terminal myc-myc-hexahistidine tag (mouse); assay: SPR Biacore, captured mAb, 25°C and 37°C
T6 construct: also called mouse IL-25-MMH; mIL-25-MMH
T6 chain: T3 chain
Method: as §1

[13] = target: T7, rat IL-25 expressed with a C-terminal myc-myc-hexahistidine tag (rat); assay: SPR Biacore, captured mAb, 25°C and 37°C
T7 construct: also called rat IL-25-MMH
T7 chain: T1 chain
Method: as §1

[14] = target: T8, human IL-25 expressed with a C-terminal myc-myc-hexahistidine tag (human); assay: SPR Biacore, captured mAb, 37°C
T8 construct: also called human IL-25-MMH; hIL-25-MMH
T8 chain: T2 chain
Method: as §1

[15] = target: T8, human IL-25 expressed with a C-terminal …; assay: SPR Biacore, captured mAb, 25°C;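 also: biacore 4000 SPR with IL-25-MMH as analyte over purified anti-IL-25 antibodies, association and dissociation rates derived from fitting sensorgrams to a 1:1 binding model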
Method: as §1

B1: H4H10907P (antibody, human IgG4, V domains shown)
VH: EVQLVESGGGLVQPGGSLRLSCAASGFTFSNYDIHWVRQVPGKGLEWISTIGSAGDTFYPGSVKGRFTISRENAKNSLYLQMNSLRAGDSAVYYCARGDNWNYVSWFFDLWGRGTLVTVSS
VL: DIQLTQSPSFLSTSVGDRVTITCWASQDISSFLAWYQQKPGKAPKLLIYAASVLQSGVPSRFSGSGSGTEFTLTISSLQPEDFATYYCQQVNSYPITFGQGTRLEIK
notes: H4H prefix = human IgG4 Fc
[1]
  100 nM Rat IL-25-MMH Bound (RU): 10 RU
  Kd: 66.9 nM
  koff: 0.0147 s⁻¹
  kon: 220000 M⁻¹ s⁻¹
  t½: 48 s
[2]
  IC50: 0.55 nM
[3]
  100 nM Mouse IL-25-MMH Bound (RU): 10 RU
  Kd: 58.7 nM
  koff: 0.0115 s⁻¹
  kon: 196000 M⁻¹ s⁻¹
  t½: 1 min
[4]
  100 nM Monkey IL-25-MMH Bound (RU): 50 RU
  Kd: 0.0671 nM
  koff: 0.000101 s⁻¹
  kon: 1.51e+06 M⁻¹ s⁻¹
  t½: 1.9 h
[5]
  IC50, luciferase reporter cells, 12 pM MfIL-25-MMH: 1.4e-10 M
[6]
  IC50, luciferase reporter cells, 5 pM hIL-25-MMH: 2.2e-10 M
[7]
  % Maximum blocking of 200 nM antibody: 87%
[8]
  50 ug/mL mAb-1 Binding (nm): 1.74 nm
[9]
  100 nM Mouse IL-25-MMH Bound (RU): 8 RU
  Kd: 137 nM
  koff: 0.0376 s⁻¹
  kon: 275000 M⁻¹ s⁻¹
  t½: 18 s
[10]
  100 nM Rat IL-25-MMH Bound (RU): 8 RU
  Kd: 85.4 nM
  koff: 0.0204 s⁻¹
  kon: 238000 M⁻¹ s⁻¹
  t½: 36 s

B2: H4H10862P (antibody, human IgG4, V domains shown)
VH: QVQLQESGPGLVKPSETLSLTCTVSGGSISSYFWSWIRQAPGKGLEWIGFIDYSGSTNYNPSLKSRVTISVDTSKNQFSLKLNSVTAADTAVYYCARQEIINFELNWFDPWGQGTLVTVSS
VL: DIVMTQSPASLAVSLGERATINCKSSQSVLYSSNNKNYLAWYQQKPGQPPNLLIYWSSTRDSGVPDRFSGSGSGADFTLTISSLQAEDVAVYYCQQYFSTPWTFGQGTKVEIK
[11]
  100 nM Monkey IL-25-MMH Bound (RU): 58 RU
  Kd: 0.0255 nM
  koff: 5.1e-05 s⁻¹
  kon: 2e+06 M⁻¹ s⁻¹
  t½: 3.77 h
[12]
  binding result: no binding (tested: 100 nM)
[13]
  binding result: no binding (tested: 100 nM)
[14]
  100 nM Human IL-25-MMH Bound (RU): 72 RU
  Kd: 0.0879 nM
  koff: 0.00021 s⁻¹
  kon: 2.39e+06 M⁻¹ s⁻¹
  t½: 0.917 h
[15]
  100 nM Human IL-25-MMH Bound (RU): 56 RU
  Kd: 0.0344 nM
  koff: 6.49e-05 s⁻¹
  kon: 1.88e+06 M⁻¹ s⁻¹
  t½: 2.97 h

B3: H1M11009N (antibody, mouse IgG1, V domains shown)
VH: EVQLVESGGGLVEPGGSLRLSCVASGFTFSNAWMNWVRQAPGKGLEWVGHIERKTDGGTTDFAAPVKGRFTISRDDSKNTLYLQMNSLKTEDTAVYYCTTVGPYSVPFDYWGQGTLVTVSS
VL: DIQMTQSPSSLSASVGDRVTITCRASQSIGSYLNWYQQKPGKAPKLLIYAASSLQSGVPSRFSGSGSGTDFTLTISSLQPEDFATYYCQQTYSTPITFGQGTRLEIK
notes: also called 12
[12]
  binding result: no binding (tested: 100 nM)
[13]
  binding result: no binding (tested: 100 nM)
[14]
  100 nM Human IL-25-MMH Bound (RU): 30 RU
  Kd: 21.1 nM
  koff: 0.00829 s⁻¹
  kon: 393000 M⁻¹ s⁻¹
  t½: 0.0233 h
[15]
  100 nM Human IL-25-MMH Bound (RU): 30 RU
  Kd: 12.5 nM
  koff: 0.00304 s⁻¹
  kon: 242000 M⁻¹ s⁻¹
  t½: 0.0667 h

B4: H2M11008N (antibody, V domains shown)
VH: QVQLQESGPGLVKPSETLSLTCTVSGGSISSHYWSWIRQPPGKGLEWIGFIYYSGSTNFNPSLKSRVTISIDTSKNQFSLKLSSVTAADTAVYYCARHDYNDYELNYFDLWGRGTLASVSS
VL: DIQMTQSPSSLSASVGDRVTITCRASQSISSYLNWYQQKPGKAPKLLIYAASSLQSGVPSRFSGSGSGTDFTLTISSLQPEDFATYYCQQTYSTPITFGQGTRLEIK
notes: also called H2aM11008N
[12]
  binding result: no binding (tested: 100 nM)
[13]
  binding result: no binding (tested: 100 nM)
[14]
  100 nM Human IL-25-MMH Bound (RU): 60 RU
  Kd: 1.08 nM
  koff: 0.000793 s⁻¹
  kon: 734000 M⁻¹ s⁻¹
  t½: 0.25 h
[15]
  100 nM Human IL-25-MMH Bound (RU): 48 RU
  Kd: 0.435 nM
  koff: 0.00021 s⁻¹
  kon: 482000 M⁻¹ s⁻¹
  t½: 0.917 h

B5: H4H10861P (antibody, human IgG4, V domains shown)
VH: QVQLQESGPGLVKPSETLSLTCTVSGASISNYYWSWIRQPPGKGLEWIGYIFYSGNTNYNPSLKSRVTISVDTSKNQFSLKLSSVTAADTAVYYCARVRFSDYELNWFDPWGQGTLVTVSS
VL: DIVMTQSPDSLAVFLGERATINCRSSQSVFLGSNNKNYLAWYQQKPGQPPKLLIYWASSRESGVPDRFSGSGSGTDFTLTINSLQAEDVAVYYCQQYFITPLTFGGGTKVEIK
[11]
  100 nM Monkey IL-25-MMH Bound (RU): 48 RU
  Kd: 0.00454 nM
  koff: 1.48e-05 s⁻¹
  kon: 3.26e+06 M⁻¹ s⁻¹
  t½: 13 h
[12]
  binding result: no binding (tested: 100 nM)
[13]
  binding result: no binding (tested: 100 nM)
[14]
  100 nM Human IL-25-MMH Bound (RU): 63 RU
  Kd: 0.0268 nM
  koff: 7.8e-05 s⁻¹
  kon: 2.91e+06 M⁻¹ s⁻¹
  t½: 2.47 h
[15]
  100 nM Human IL-25-MMH Bound (RU): 47 RU
  Kd: 0.0116 nM
  koff: 2.34e-05 s⁻¹
  kon: 2.01e+06 M⁻¹ s⁻¹
  t½: 8.22 h

B6: H4H10901P (antibody, human IgG4, V domains shown)
VH: QLQLQESGPGLVRPSETLSLTCSVSSGSIRSSNYYWGWIRQPPGKGLEWIGNIYYSGNTFYNPSLKGRVTISVDTSKNQFSLKLSSVTATDTAVYYCARQGYSDYELNWFDPWGQGTLVTVSS
VL: DIVMTQSPDSLVLSLGERATFNCKSSQSVLDSSNNKNYLAWYQQKPGQPPKLLIYWASTRESGVPDRFSGSGSGTDFSLTISSLQAEDVALYYCQQFYNSPWTFGQGTKVEIK
[11]
  100 nM Monkey IL-25-MMH Bound (RU): 64 RU
  Kd: 0.0116 nM
  koff: 3.06e-05 s⁻¹
  kon: 2.63e+06 M⁻¹ s⁻¹
  t½: 6.28 h
[12]
  binding result: no binding (tested: 100 nM)
[13]
  binding result: no binding (tested: 100 nM)
[14]
  100 nM Human IL-25-MMH Bound (RU): 65 RU
  Kd: 0.0651 nM
  koff: 0.000208 s⁻¹
  kon: 3.19e+06 M⁻¹ s⁻¹
  t½: 0.933 h
[15]
  100 nM Human IL-25-MMH Bound (RU): 62 RU
  Kd: 0.0254 nM
  koff: 5.79e-05 s⁻¹
  kon: 2.28e+06 M⁻¹ s⁻¹
  t½: 3.32 h

B7: H4H10864P (antibody, human IgG4, V domains shown)
VH: QVQLQESGPGLVKPSETLSLTCTVSGGSISNYFWSWIRQPPGKGLEWIGFNYNSGSTNYNPSLKSRVTISVDTSKNQFSLKLSSVTAADTAVYYCARGYNWNYEIAWFDPWGQGTLVTVSS
VL: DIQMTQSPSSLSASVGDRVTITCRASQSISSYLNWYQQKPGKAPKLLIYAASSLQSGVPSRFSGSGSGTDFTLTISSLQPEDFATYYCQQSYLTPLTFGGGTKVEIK
[11]
  100 nM Monkey IL-25-MMH Bound (RU): 78 RU
  Kd: 0.0128 nM
  koff: 4.7e-05 s⁻¹
  kon: 3.68e+06 M⁻¹ s⁻¹
  t½: 4.1 h
[12]
  binding result: no binding (tested: 100 nM)
[13]
  binding result: no binding (tested: 100 nM)
[14]
  100 nM Human IL-25-MMH Bound (RU): 94 RU
  Kd: 0.0526 nM
  koff: 0.000196 s⁻¹
  kon: 3.73e+06 M⁻¹ s⁻¹
  t½: 0.983 h
[15]
  100 nM Human IL-25-MMH Bound (RU): 75 RU
  Kd: 0.0168 nM
  koff: 4.51e-05 s⁻¹
  kon: 2.68e+06 M⁻¹ s⁻¹
  t½: 4.27 h

B8: H4H10900P (antibody, human IgG4, V domains shown)
VH: QVQLQESGPGLVRPSETLSLICTVSGGSINSYYWSWIRQPPGKGLEWIGYIYYSGSTNYNPSLKSRVTISGDTSKNQFSLKLSSVTAADTAVYYCARGVIWNYELREFDYWGQGTLVTVSS
VL: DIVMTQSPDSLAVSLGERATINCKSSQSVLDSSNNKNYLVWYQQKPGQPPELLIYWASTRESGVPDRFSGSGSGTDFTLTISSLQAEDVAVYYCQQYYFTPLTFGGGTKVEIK
[11]
  100 nM Monkey IL-25-MMH Bound (RU): 45 RU
  Kd: 0.00402 nM
  koff: 1.18e-05 s⁻¹
  kon: 2.94e+06 M⁻¹ s⁻¹
  t½: 16.3 h
[12]
  binding result: no binding (tested: 100 nM)
[13]
  binding result: no binding (tested: 100 nM)
[14]
  100 nM Human IL-25-MMH Bound (RU): 51 RU
  Kd: 0.035 nM
  koff: 9.91e-05 s⁻¹
  kon: 2.83e+06 M⁻¹ s⁻¹
  t½: 1.95 h
[15]
  100 nM Human IL-25-MMH Bound (RU): 43 RU
  Kd: 0.0158 nM
  koff: 2.75e-05 s⁻¹
  kon: 1.74e+06 M⁻¹ s⁻¹
  t½: 7.02 h
